Source: doi:10.1101/2024.10.21.619395

Biological target: G protein-coupled bile acid receptor 1 (GPBAR1), full length, with N-terminal FLAG and BRIL (human) (UniProt Q8TDU6)
Experiment: mass photometry

UniProt Q8TDU6, sequence (Q8TDU6 whole entry): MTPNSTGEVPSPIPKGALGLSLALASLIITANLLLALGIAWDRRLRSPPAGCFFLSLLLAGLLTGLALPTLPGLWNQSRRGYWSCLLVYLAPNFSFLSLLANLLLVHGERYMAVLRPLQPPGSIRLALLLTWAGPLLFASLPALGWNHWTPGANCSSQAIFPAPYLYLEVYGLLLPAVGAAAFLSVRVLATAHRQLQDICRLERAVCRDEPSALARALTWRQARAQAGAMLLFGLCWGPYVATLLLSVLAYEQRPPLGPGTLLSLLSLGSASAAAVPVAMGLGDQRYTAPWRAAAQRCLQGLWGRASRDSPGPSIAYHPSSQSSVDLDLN

stoichiometry N: 1
Substance: Heterotrimeric Gs (Gαs, Gβ1, Gγ2) (from UniProt P63096 1-18; P63092 16-394; P62873 2-340; P59768 1-71) (complex)
